These results are taken from US20140322825A1 (UNIVERSITY OF MARYLAND BALTIMORE, published 2014).

Substitutions are numbered along the chain they refer to.

Experiment [1] deals with T1, asialo-glycophorin A (aGPA) (human, UniProt P02724 20-150, desialylated by mild acid treatment; carries O-linked TFα (Galβ1-3GalNAcα) structures; biotinylated in the flow cytometry assays).
T1 construct: The lambody recognises the glycans on this glycoprotein; also called asialo-GPA
T1 sequence (looked up): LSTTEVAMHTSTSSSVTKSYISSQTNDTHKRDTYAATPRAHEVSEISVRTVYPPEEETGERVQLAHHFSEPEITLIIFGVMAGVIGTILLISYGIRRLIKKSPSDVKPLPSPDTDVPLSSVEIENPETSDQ
Kind of experiment: SPR (Biacore T200), lambody captured via anti-His mAb, aGPA as analyte, 1:1 Langmuir fit. In general terms: Surface plasmon resonance follows binding to a sensor surface in real time, without labels.
Protocol: All SPR binding experiments were performed using Biacore T200 (GE Healthcare). The running and sample buffer was HBS-EP+ (10 mM HEPES, pH 7.4, 150 mM NaCl, 3 mM EDTA, 0.05% Polysorbate 20). All measurements were performed at 25° C. Anti-His antibody (His capture kit, GE Healthcare) was immobilized by amine coupling to Sensor Chip CM5. […] Regeneration of the anti-His surface was accomplished using a 60 second injection of 10 mM glycine-HCl pH 1.5. The reference subtracted SPR binding curves were blank subtracted, and curve fitting was performed with a 1:1 model to obtain kinetic parameters using the Biacore T200 Evaluation software.

Experiment [2] deals with T1, asialo-glycophorin A (aGPA). Kind of experiment: SPR (Biacore T200), lambody captured by anti-His mAb, aGPA as analyte at 312 pM to 20 nM, 1:1 Langmuir fit.
Protocol: Reference subtracted and blank subtracted binding data were fitted with a 1:1 Langmuir binding model to determine the association and dissociation constants. The equilibrium dissociation constants were calculated from these values.
(§1) All SPR binding experiments were performed using Biacore T200 (GE Healthcare). The running and sample buffer was HBS-EP+ (10 mM HEPES, pH 7.4, 150 mM NaCl, 3 mM EDTA, 0.05% Polysorbate 20). All measurements were performed at 25° C. Anti-His antibody (His capture kit, GE Healthcare) was immobilized by amine coupling to Sensor Chip CM5. VLRB.aGPA.23 and Mut.10 were diluted to 10 μg/mL and injected in each cycle at 10 μL/min for 30 seconds, to capture approximately 300 RU. […] Regeneration of the anti-His surface was accomplished using a 60 second injection of 10 mM glycine-HCl pH 1.5. The reference subtracted SPR binding curves were blank subtracted, and curve fitting was performed with a 1:1 model to obtain kinetic parameters using the Biacore T200 Evaluation software.
Experiment [3] shares this target. Kind of experiment: SPR (Biacore T200), lambody captured via anti-His mAb, aGPA as analyte.
Protocol: as §1

B1: lambody VLRB.aGPA.23 (as used in SPR) (other)
chain: ACPSQCSCSGTEVNCAGKSLASVPAGIPTTTRVLYLNSNQITKLEPGVFDRLANLRELHLWGNQLVSLPPGVFDNLANLEKLWLNSNQLTSLPAGLFDRLVNLEHLGLCCMKLTELPSGAFDKLTRLKQLGLDQNQLKSIPDGAFARLPSLTHVWLHTNPWDCQCTDILYLSGWVAQHSSIVGEGWPWRHSPDSAKCSGTNTPVRAVTEASTSPSKCP
notes: Dimeric, yeast-secreted lambody captured on the chip through an anti-His antibody; also called VLRB.GPA.23; not shown: 6-His and FLAG tags plus a dimerization domain
In the case of B1, in experiment [1], the Kd – broadly, the concentration at which binding is half-saturated – was determined as 1.1 nM. Also, in experiment [2], the Kd is 1.09 nM; the koff – broadly, a measure of how fast the partners let go of each other – stood at 0.000331 s⁻¹; the kon – broadly, the rate constant with which the complex forms – stood at 303000 M⁻¹ s⁻¹.

B2: Mut.10 (affinity-improved clone of VLRB.aGPA.23) (other)
chain: B1 chain with S19N, S86G, H105R, K112M, T208S
notes: also called clone Mut.10; not shown: 6-His and FLAG tags plus a dimerization domain
With B2, the “fold higher affinity than VLRB.aGPA.23” value in experiment [3] came to 1.7 fold. In experiment [2], binding was characterised by a dissociation constant (Kd) of 0.637 nM, the koff was found to be 0.000222 s⁻¹ and the kon came to 349000 M⁻¹ s⁻¹.
